Reference: patent US20250297018A1, “IL-18BP ANTAGONIST ANTIBODIES AND THEIR USE IN MONOTHERAPY AND COMBINATION THERAPY IN THE TREATMENT OF CANCER” (Compugen Ltd., priority 2022, published 2025)

Tests used:
IL18 = biological target: T1, IL18 (Homo sapiens, UniProt Q14116); conditions: Kim et al., PNAS 2000; read-out: Dissociation constant (Kd) for IL18; cited from earlier work
T1 sequence (Q14116 37-193): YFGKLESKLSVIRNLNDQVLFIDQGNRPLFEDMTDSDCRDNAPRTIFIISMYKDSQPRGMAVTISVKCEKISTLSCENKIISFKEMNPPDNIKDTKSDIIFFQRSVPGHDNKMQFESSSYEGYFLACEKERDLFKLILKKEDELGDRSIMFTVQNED

[1] = MC38ova tumor-bearing mice treated with anti-mIL18BP or engineered mIL-18: weight, serum cytokines, spleen; assay type: in vivo, mouse; conditions: spleens harvested 24 hours after the 4th treatment (IL-15: single dose), vs control
Procedure: Experiments were performed in C57Bl/6 (female, 6-8 wk, Envigo). Mice were anesthetized with 10% Ketamine and 10% Xylazine mixture injected intraperitoneal. Next, mice were inoculated with MC38ova cells (1.2×10^6) subcutaneously to the right flank in 50 μl/mice.
Spleens were harvested from mice 24 hours after the 4th treatment and weighed. For IL15 experiments, mice were treated with a single dose of 0.5 μg, 1.5 μg of IL15, or with a mix of 0.5 μg IL15 and 2.33 μg IL15R.

[2] = biological target: T2, recombinant human IL18-BP (Homo sapiens, UniProt O95998); assay: CMV recall assay, IFNγ secretion by CMV-reactive T-cells; assay type: cell-based; conditions: rhIL-18 30 ng/ml + rhIL-18BP 2 μg/ml; antibodies 10 μg/ml
T2 construct: purchased R&D systems 119-BP; host or cells: added to MEL624/PD-L1 + CMV-reactive T-cell culture
T2 sequence (O95998 31-194): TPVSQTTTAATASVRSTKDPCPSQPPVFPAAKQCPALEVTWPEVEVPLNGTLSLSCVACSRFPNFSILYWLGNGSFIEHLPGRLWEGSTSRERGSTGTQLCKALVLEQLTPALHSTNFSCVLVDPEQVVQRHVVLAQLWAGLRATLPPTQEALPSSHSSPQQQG
Procedure: Human MEL-624 overexpressing PD-L1 cells were thawed and loaded with CMV pp65 peptide (0.03 μg/ml). The cells were seeded at 100K/well in a 96 well plate and incubated for 30 minutes in 37° C., 5% CO2 incubator with a combination rhIL-18 (30 ng/ml, R&D systems, 9124-IL/CF) and rhIL-18BP-Fc chimeric protein ([…], R&D systems 119-BP) to allow IL-18+IL-18BP complex formation. After 30 minutes, anti-human IL-18BP (ADI-71722, anti-human PVRIG, anti-human TIGIT (anti-TIGIT), anti-human PD1 (Pembrolizumab) or relevant isotype control (hIgG4) were added to the culture to examine their capability to restore IL-18 activity. All antibodies were added to a final concentration of 10 μg/ml. 30 minutes post incubation with antibodies, thawed CMV-reactive T-cells were added to the culture. Cells and all added solutions were prepared in full IMDM (IMDM media with 10% human serum, 1% Glutamax, 1% MEM eagle, 1% sodium pyruvate, and 1% Penicillin-Streptomycin Solution) to a final volume of 200 μl/well. Plates were incubated for 24 hours in 37° C., 5% CO2 incubator, after which the supernatant was collected for IFNγ secretion evaluation. All tests were done in triplicates and each repeated with three donors.
MEL624 cells that overexpress PD-L1 were loaded with CMV peptide pp65. […] CMV-specific T-cells were then added to the culture and IFNg secretion was measured after an overnight incubation.

endogenous IL-18BP = biological target: T3, endogenous IL-18BP (Homo sapiens, UniProt O95998); assay: MEL624:TIL co-culture with endogenous IL-18BP levels, IFNg release; assay type: cell-based; conditions: IL-18 3.7 ng/ml, 5 μg/ml antibody, 18 hours, vs isotype
T3 construct: endogenous in cells; host or cells: MEL624 cells co-cultured with human TILs
T3 sequence (O95998 31-194): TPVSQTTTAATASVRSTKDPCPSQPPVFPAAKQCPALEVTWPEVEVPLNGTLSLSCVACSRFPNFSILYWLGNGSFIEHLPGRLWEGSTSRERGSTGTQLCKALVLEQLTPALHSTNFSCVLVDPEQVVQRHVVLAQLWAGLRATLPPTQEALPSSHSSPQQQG
Procedure: A. Schematic representation of assay setup. MEL624 cells were co-cultured with human TILs that were previously enriched for MARTI or gp100 peptide-specific clones. IL-18 (3.7 ng/ml) was added to the co-culture along with 5 μg/ml ADI-71739 or isotype control. The co-culture was set for 18 hours following which IFNg levels were measured in supernatants. B. IFNg levels were increased in co-cultures treated with ADI-71739 (turquoise) as compared with isotype-treated samples (black). Representative examples from two TIL donors are shown.

MEL624 cells = assay: Killing of MEL624 melanoma cells by human TILs (IncuCyte); assay type: cell-based; conditions: rhIL-18 50 ng/ml + rhIL-18BP 1 μg/ml, 10 μg/ml antibody, 72 hours
Procedure: MEL624 cells were co-cultured with human TILs that were previously enriched for MARTI or gp100 peptide-specific clones. rhIL-18 (R&D systems, 50 ng/ml) and rhIL-18BP (R&D systems, 1 μg/ml) were added to the co-culture for 30 minutes to allow the formation of IL-18:IL-18BP complex prior to treatment with 10 μg/ml ADI-71739 or isotype control. The co-culture was monitored for 72 hours using an IncuCyte live cell imaging instrument. […] In the presence of the isotype control antibody (black), IL-18BP abrogated the effects of IL-18, while the anti-IL-18BP antibody (turquoise) was able to completely restore these effects.

[3] = biological target: T2, recombinant human IL18-BP; assay: MEL624:TIL assay, IFNγ secretion; assay type: cell-based; conditions: rhIL-18 30 ng/ml + rhIL-18BP 1 μg/ml, 24 h, vs isotype control
Procedure: Human MEL624 cells were thawed and grown in DMEM with 10% FBS, 1% Glutamax, 1% Penicillin-Streptomycin Solution and 1% HEPES buffer. The cells were then seeded at 75 k cells/well in a 96 well plate in the assay medium (IMDM with 10% human serum, 1% Glutamax, 1% MEM eagle, 1% Sodium Pyruvate and 1% Penicillin-Streptomycin Solution) and incubated 1 hour in 37° C., 5% CO2 incubator before co-culture with human tumor infiltrating lymphocytes that were previously expanded using known melanoma antigens (TILs). Human TILs were thawed in full TIL media and 75 k cells/well were co-cultured with the MEL624 cells to create an effector:target ratio of 1:1. The co-cultured cells were then treated with rhIL-18 (30 ng/ml) and rhIL-18BP (1 μg/ml) for 30 min in 37° C., 5% CO2 incubator to allow IL-18:IL-18BP complex formation. After 30 minutes, anti-human IL-18BP mAb (ADI-71722, dose titration, 30 μg/ml-0.01 μg/ml, dilution factor of 1:3) or relevant isotype control (hIgG1 30 μg/ml) were added to the co-culture to examine its capability to restore IL-18 activity. Cells and all added solutions were prepared in full assay medium to a final volume of 200 μl/well. Plates were incubated for 24 hours in 37° C., 5% CO2 incubator, after which the supernatant was collected for cytokine secretion evaluation. […]
Where applicable, the EC50 value was calculated using GraphPad Prism software.

human whole blood = assay: Whole blood loop assay (ID.Flow); assay type: cell-based; conditions: ex vivo whole blood loop, six healthy volunteers, 24 hr
Procedure: Flow, an ex vivo system that mimics the human blood circulation. Fresh whole blood was taken from six healthy volunteers and immediately transferred to a whole blood loop system. The test items were administered, and the blood was set to circulate at 37° C. to prevent clotting. Blood samples collected at the 24 hr time point were analyzed for hematology and flow cytometry parameters and then processed to plasma for cytokine analysis. The anti-CD52 antibody Alemtuzumab was included as a reference antibody with manageable cytokine release in the clinic.

Molecule: IL18-BPa: most abundant human IL18-BP isoform, isoform a
- Kd (IL18): ~0.4 nM

Molecule: IL-15: IL15 given as single dose of 0.5 μg or 1.5 μg, or mixed with IL15R [reference compound]
- Spleen size [1]: larger than controls

B1: ADI-71739: anti-IL18-BP antibody, VH SEQ ID NO: 154, VL SEQ ID NO: 159 (FIG. 2K), 66716 lineage (antibody, V domains shown)
VH: QLQLQESGPGLVKPSETLSLTCTVSGGSISSPDYPWGWIRQPPGKGLEWIGSIYYQGATYYNPSLKSRVTISVDTSKNQFSLKLSSVTAADTAVYYCARGPYRQLFDYWGQGTLVTVSS
VL: DIQMTQSPSSVSASVGDRVTITCRASQGISSWLAWYQQKPGKAPKLLIYAASSLQSGVPSRFSGSGSGTDFTLTISSLQPEDFATYYCQQGSVFPYTFGGGTKVEIK
- IFNγ secretion by CMV-reactive T-cells [2]: increase IFNγ secretion by the T cells
- IFNg release by tumor infiltrating lymphocytes (endogenous IL-18BP): increased IFNg release by tumor infiltrating lymphocytes
- Killing of melanoma cells by tumor infiltrating lymphocytes (MEL624 cells): increased killing of melanoma cells by tumor infiltrating lymphocytes
- IFNγ secretion from TILs [3]: increase IFNγ secretion from TILs compared to isotype control

B2: ADI-71722: anti-IL18-BP antibody, VH SEQ ID NO: 84, VL SEQ ID NO: 89 (FIG. 2D), 66670 lineage (antibody, V domains shown)
VH: QVQLVQSGAEVKKPGSSVKVSCKASGGTFSEYPISWVRQAPGQGLEWMGGIIPGAGTAIYAQKFQGRVTITADESTSTAYMELSSLRSEDTAVYYCARGRHFHETWGQGTLVTVSS
VL: DIQMTQSPSSVSASVGDRVTITCRASQGISSWLAWYQQKPGKAPKLLIYAASSLQSGVPSRFSGSGSGTDFTLTISSLQPEDFATYYCQQVYRFPWTFGGGTKVEIK
- IFNγ secretion by CMV-reactive T-cells [2]: fully restore IFNγ secretion

B3: ADI-71709: anti-IL18-BP antibody, VH SEQ ID NO: 54, VL SEQ ID NO: 59 (FIG. 2A), 66650 lineage (antibody, V domains shown)
VH: QVQLVQSGAEVKKPGASVKVSCEASGYTFDIYAVHWVRQAPGQRLEWMGWIHAGTGATKYSQKFQGRVTITRDTSASTAYMELSSLRSEDTAVYYCARGLGEVGPTGTSWFDPWGQGTLVTVSS
VL: DIQMTQSPSTLSASVGDRVTITCRASQSISSWLAWYQQKPGKAPKLLIYEASSLESGVPLRFSGSGSGTEFTLTISSLQPDDFATYYCQQYRQSPFTFGGGTKVEIK
- Signs of systemic immune activation (human whole blood): did not show signs of systemic immune activation
